2 substances from patent publication US20250282876A1, “STABLE Fc FRAGMENTS, CONJUGATES, COMPOSITIONS, AND METHODS OF USE” (PURDUE RESEARCH FOUNDATION, priority 2022, published 2025) can be followed below.

Assay [1] addresses His-tagged human FcγR variant CD32b (human) (UniProt P31994). Description: BLI (Octet HTX), His-tagged FcγR on anti-Penta-HIS biosensors, 1:1 fit; * denotes weak binding/inaccurate KD.
For assay [2] the target is unchanged. Description: BLI (Octet HTX), His-tagged FcγR on anti-Penta-HIS biosensors, Fc in solution, 1:1 fit.

As for “IgG1-CH2-CH3-WT, wild-type Fc region of human IgG1 (from UniProt P0DOX5 218-449)”, in assay [1], the Kd worked out at 3760 nM.

Substance “IgG1-CH2-CH3-DLE mutant (Ser239Asp/Ala330Leu/Ile332Glu), monomeric Fc fragment (from UniProt P0DOX5 218-449)” registered an equilibrium dissociation constant (Kd) in assay [2] of 1.34 nM.
